Results taken from PMC9418005 (Nature Microbiology, 2022).

Experiments:
[1] = molecular target: T1, original 2019-nCoV spike trimer (SARS-CoV-2 original 2019-nCoV …, UniProt P0DTC2, 2 prolines (P986–P987) | residues 682–685 mutated to GSAS); test: Luminex spike-ACE2 surrogate neutralization assay; conditions: both partners purified
[2] = molecular target: Alpha (B.1.1.7) variant spike trimer (SARS-CoV-2 Alpha (B.1.1.7), 2 prolines (P986–P987) | residues 682–685 mutated to GSAS); test: cell-based or functional assay
[3] = molecular target: D614G mutant spike trimer (SARS-CoV-2 2019-nCoV D614G, D614G | 2 prolines (P986–P987) | residues 682–685 mutated to GSAS); test: cell-based or functional assay
[4] = molecular target: Delta (B.1.617.2) variant spike trimer (SARS-CoV-2 Delta (B.1.617.2), 2 prolines (P986–P987) | residues 682–685 mutated to GSAS); test: cell-based or functional assay
[5] = molecular target: Gamma (P.1) variant spike trimer (SARS-CoV-2 Gamma (P.1), 2 prolines (P986–P987) | residues 682–685 mutated to GSAS); test: cell-based or functional assay
[6] = molecular target: Beta (B.1.351) variant spike trimer (SARS-CoV-2 Beta (B.1.351), 2 prolines (P986–P987) | residues 682–685 mutated to GSAS); test: cell-based or functional assay
[7] = molecular target: T1, original 2019-nCoV spike trimer; test: Luminex bead-based binding assay; conditions: both partners purified

B1: P5C3 LS monoclonal antibody (antibody, V domains shown)
VH: QMQLVQSGPEVKKPGTSVKVSCKASGFTFTSSAVQWVRQARGQRLEWIGWIVVGSGNTDYAQQFQERVTITRDMSTSTAYMELSSLGSEDTAVYYCAAPNCSGGSCYDGFDLWGQGTMVTVSS
VL: EIVLTQSPGTLSLSPGERATLSCRGSQSVRSSYLGWYQQKPGQAPRLLIYGASSRATGIPDRFSGSGSGTDFTLTISRLEPEDFAVYYCQQYGSSPWTFGQGTKVEIK
binding result [1]: binds

B2: P2G3 LS human IgG1 monoclonal antibody (antibody, V domains shown)
VH: EVQLVESGGGLVQPGRSLRLSCAASGFRFDDYALHWVRQAPEKGLEWVSGISWNSNNIGYAESVKGRFTISRDTAKKSLYLQMNDLRAEDTALYYCVKDRHYDSSGYFVNGFDIWGQGTLVTVSA
VL: DIQLTQSPSFLSASVGDRVTVTCRASQGISSYVAWYQQKAGKAPTLLIYTASTLQSGVPSRFSGSGSGTEFTLTISSLQPEDFATYYCQQLHSYPVTFGQGTRLDIE
IC80, live SARS-CoV-2 cytopathic effect neutralization assay, Vero E6 cells [2]: 0.01 mg/L | IC80, live SARS-CoV-2 cytopathic effect neutralization assay, Vero E6 cells [3]: 0.028 mg/L | IC80, live SARS-CoV-2 cytopathic effect neutralization assay, Vero E6 cells [4]: 0.024 mg/L | IC80, live SARS-CoV-2 cytopathic effect neutralization assay, Vero E6 cells [5]: 0.021 mg/L | IC80, live SARS-CoV-2 cytopathic effect neutralization assay, Vero E6 cells [6]: 0.017 mg/L | binding result [7]: binds
